Test results reported in the nanobody polyreactivity screen of Harvey et al. (2022).

Experiment: yeast display, Sf9 membrane polyspecificity reagent, FACS + sequencing; frameworks hold sequencing errors
Summary of the method: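 After 36–48 hours of galactose induction, yeast (Saccharomyces cerevisiae BJ5465) displaying a synthetic nanobody library were stained at 4 °C for 1 hour with 10% biotinylated, detergent-solubilized Sf9 membrane reagent. Streptavidin microbeads enriched the stained cells before FACS sorting into low and high (top ~1%) gates on anti-HA and streptavidin fluorescence. Each clone's polyreactivity label reflects its gate of origin.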

Sequence	polyreactivity (PSR sort gate)
QVQLVESGGGLVQAGGSLRLSCADSGRTFQRHARGWYRKAPGKEREFVAAISKSGGRTYYADSVKGRFTISRDTAKNTVSLQMNSLKPEDTAVYYCNRGSTHDLSHPELYGYWGQGTQVTVSS	high polyreactivity
QVQLVESGGGLVQAGGSLRLTCAASGSIFWPNAMGWYRPAPGKERELVAAISWGTGSTYYADSVKGRFTISRDNAKNTVYLQMNSLKPEDTAVYYCAADGAYLDPYYDYWGQGTQVTVSS	low polyreactivity
QDQLVESGGGLVQAGGSLRLSIAASVRIFYANAMGWYRQAPGQERELVAAISSGGSTYYADSVKGRFTISRDNAKNTVYLQMNSLKPEDTAVFYCAVYTHKKVRPEYDYWGQGTQVTVSS	low polyreactivity
QVQIVESGGGLVQAGGSLRLSCAASGGTFYLYAKGWYRQAPGKERELVAAITTSGGSTYYADSVKGRFTISRDHAKNTVYLQMNSLKPEDTAVYYCNKDLSSTKFDYWGQGTQVTVSS	low polyreactivity
QVQLVESGGGLVQAGGSLRLSCAASGYISYYYAMGWYREAPGKEREFVAGISWSGGSTYYADPVKGRFTISRDNAKNTVYLQMNSLKPEDTAVYDCAARLSRWWPPTGVHYSDRYYGGQGTQVTVSS	high polyreactivity
QVQLVESGGGLVQAGGSLRLSCAASGSTFVVNTMGRYRQAPGKERELVAAISTGSSTYADSVKGRFTISRDNAKNTVYLQMNSLKPEDTAVYYCNTAFPGKYDYWGQGTQVTVSS	low polyreactivity
QVQLVESGGGLVQSGGSLRLSWAASGSIFVTYAMRCYRPAPGKERELVAAINSGGRTNYADSVKGRFTISRDNAMNTVFLNMNSMKPEDTAVYYCAATGRYFDPYYRYDYWGQGTQVTVSS	low polyreactivity
QVQLVESGGGLVQAGGSLRLSCAASGFIFSWYAMGWYRQAPGKERELVAAISRSGTRTYYADSVKGRFTISRDNAKNTVYLQMNSLKPEDTAVYYCAAAAKSWLFDYWGQGTQVTVSS	high polyreactivity
QVQLVESGGGLVQAGASLRLSCAASGLNFKRNAMGWYRQAPGKERELVAAIRYSTDSTNYADSVKGRFTISRDNAKNTVFLQMNSLKPEDTAVYYCAKDKQDYEYWGQGTLVTVSS	low polyreactivity
QVQLVESGGGLVQAGGSLRLSCAASGSIYPDYDMGWYRQAPGKERELVAAISSSGDSTYYADSVKGRFTISRDNAKNTVYLQMNSLKPEDTAVYYCAVDGTRSTSNGSEFTGYNYWGQGTHVTVSS	low polyreactivity
QVQLVESGGGLVQAGGSLRLSCAASGSTFYVYAMGWYRQAPGKERELVAVIRYRGDRTYYADSVKGRFTISRDNAKNTVYLQMNSLKPEDTAVYYCAKEGFYKYYWGQGTQVTVSS	high polyreactivity
QVQLVESGGCLVQAGGRLRLSCAASGIIFYLYAMAWYRQARGKVWELVATISRRGGSTYYADSVKGRFTISRDNAKNTVYLQMNSLKPDDTAVYYCATGHFSVGRSFSSGSYEYWGQGTQVTVSS	high polyreactivity
QVQLVESGGGLVQAGGSLRLSCSASGGTFEFYTMGWYRQAPGKERELVAAISWSGSSTYYADSVKGRFTISRDNAKNTVYLQMNSLKPEDTAVYYCAAYPRPYIGYTDGYVWYEFDYWGQGTQVTVSS	low polyreactivity
QVQLVESGGGLVQAGGSLRLSCAASGSIFRRNAMGWYRQAPGKEREFVAAITWNGGSTYYADSEKGRFTNSRDNAKNPVYLQRNSLKPEDTAVYYCAARAFYYAGDWYGYWGQGTQVTVSS	high polyreactivity
QVQLVESGGGLVQAGGSLRLSCAASGRIFNYAMGWYRQAPGKERELVAAISRGGGRTYYADSVKGRFTISRDNAKNTVYLQMNSLKPEDTAVYYCAADLSPEYDYWGQGTQVTVSS	high polyreactivity
QVQLVESGGGLVQAGGSLRLSCAASGIIFARYAMGWYRQAPGKERELVASINWTGGNTYADSVKGRFTISRDNAKNTVYLQMNSLKPEDTAVYYCARDFSPGSSDPKASISFDHWGQGTQVTVSS	low polyreactivity
QVQLVESGGGLVQAGGSLRLSCAASGSIIDYYAMGWYRPAPGKERELVAAISESSDSTYYADSVKGRFTISRDNAKNTVYLQMNSLTPEDTAVYYCAADSLTPKSASDYWGQGTQVTVSS	low polyreactivity
QVQLVESGGGLVQAGGSLRLSCAASGSTFLINAMGWYRQAPGKEREFVAAITSSGGTTYYADSVKGRFTISRDNAKNTVYLQMNSLKPEDTAVYYCAAVSRSRREKKFDYWGQGTQVTVSS	low polyreactivity
QVQLVESGGGLVQAGGSLRLSCAASGFTFEYNALGWYRQAPGKERELVAAISSGGRTNYADSVKGRFTISRDNAKNTVYLQMNSLKPEDTAVYYCAKRLGVRPAFYYWGQGTLVTVSS	high polyreactivity
QVQLVESGGGLVQAGGSLRLSCAASGSIFYDNAMGWYRQAPGKERELVASIRWSGDSTYYADSVKGRFTISRDNAKNTVYLQMNSLKPEDTAVYYCAADPVEPYFTAIAYDFWGQGTQVTVSS	low polyreactivity
QVQLVESGGGLVQAGGILRLSCAASGRNFVHYAMGWYRQAPGKERELVAAISHSGGRTYYADSVKGRFTMSRDYAQNTVYLQMNSLKPEDTAVYYCNVRGSPAGTGLLDYWGQGTQVTVSS	high polyreactivity
HVQLVESGGGLVQARGSLRLSCAASGSTFYAYDRGWYRQAPGKERELVAAISSTGGRTDYADSVKGRFTISRDNSKNTVYLQMNSLKPEDTAVYYCAARQLSSHYDYWGQGTQGTVSS	low polyreactivity

Sequence	polyreactivity (PSR sort gate)
QVQLVESGGGLVQAGGSLRLSCAASGNTFNPNAMGWYRQAPGKERELVAVIRFRGGSTYYADSVKGRFTISRDNAKNTVYLQMNSLKTEDTAVYDCAADFLYYYLRYYYWGQGTQVTVSS	high polyreactivity
QVQLVESGGGLVQAGGSLRLSCAASGFTFWLYAMGWYRHAPAKEREFVAAISTSGGSTYADSVKGRFTISRDNAKYTVYLQMNSLKPEDTAVYYCNAGYVLYYDYHLFYWGQGTQVTVSS	low polyreactivity
QVQLVESGGGLVQAGGSLRLSCASSGNTFVDYAMGWFRQAPGKETELVAAISDGGSTNYADSVKGRFTISRDNAKNTVDLQMNSLKPEDTEVYYCAKDELYIPGVWPYYEYDYWGQGTQVTVSS	low polyreactivity
QVQLVESGGGLVQAGGSLRLSCAASGSIFQRYTMGWYRQAPGKERELVARISGRGGSTYYADSVKGRFTISRDNAKNTVYLQMNSMKPEDTAVYYCAADTGRYLDSNYWGQGTQVTVSS	high polyreactivity
QVQLVESGGGLVQAGGSLRLSCAASGSTFARNAMGWYRQAHGKERELVAAITNAGDTNYADSVKGRFTISRDNAKNTVYLQMNSLKPVDTAVYYCAADPILIDEYWGQGTQVTVSS	low polyreactivity
QVQLVESGGGLVQAGGSLRLSCAASGLIRDGKVMGWYIQAPGKERELVAAINTSGGSTYYADSVKGRFTISRDNAKNTVYLQMNSLKPEDTAVYYCAARYPSDYDYWGQGTQVTVSS	low polyreactivity
QDQLVESGGGLVQAGGSLRLSCAASGSTFSWYTMGWYRQAPGKERELVAAISKRGGSTYYADSVKGRFTISRDNAKNTVYLQMNSLKPEDTAVYYCNKDDERGKLYYWGQGTQVTVSS	high polyreactivity
QVQLVESGGGLVQAGGSLRLSCAASGRTFRRYAMGWYRQAPGKERELVAASSRGANTNYADSVKGRFTISRDNAKNTFYLQMNSLKPEDTAVYYCNAKQAGYYFAFGYWGQGTQVTVSS	high polyreactivity
QVLLVESGGVLVQAGGSLRLSCAASGSTFWSYAMGWYRQAPGKERELVAAISWSGDSTYYADSVKGRFTISRDNAKNTVYLQMNSLKPEDTAVYYCAADYVGGSYEYEYWGQGTQVTVSS	low polyreactivity
QVQLVESGGGLVQAGGSLRLSCAASGSIFRQNAMGWYRQAPGKERELVAAISWSGVRTYYADSVKGRFTISRDNAKNTVYLQMNSLKPEDTAVYYCATRYTHVYYGRISSSPKFDSWGQGTQVTVSS	low polyreactivity
QVQLEESGGGLVQEGGSLRLSCAASGRTFYYYDMGWYRQAPGKERELVAAITWSGGSTYYADSVKGRFTISRDNAKNTVYLQRNCLKREDTAVYYCAADVTYSRYEYWGQGSQVTVSS	low polyreactivity
QVQLVESGGGLVQAGGSLRLICAASGSTFNIYAMGWYRQAPGKERELVAAITSSGGSTYYAESVKGRFTISRDNGKNTVYLQMNSLKPEYTAVYYCNTDQYSPYEYSSFDSWGQGSQVTVSS	low polyreactivity
QVQLVESGGGLVQAGGSLRLSCAASGRTLRYYDMGWYRQEPGKEREIVAAISWSGVSTYYADSVKGRFTISRDNAKNTVYLQMNSMQPEDTAVYYCAVGYVLTGVFEARFDYWGQGTLVTVSS	high polyreactivity
QVQIVESGGGLVQAGGSLRLSCAASGSTFGSNAMGWYRQAPGKERELGAAISWTGGSTYYADSVKGRFTISRDNAKNTVYLQLNSLKPEDTAVYYCNKRIAESDTTVTYDYWGQGTQVNVSS	low polyreactivity
QVQLVESGGGLVQAGGSLRLSCAASGITLLYNAMGWYRQAPGKERELVAGITGRGGSTYYADSVKGRFTISRDNAKNTVYLQMNSLKPEDNAVYYCAATTDYRYVGRIVIRDDHWGHGTQVTVSS	low polyreactivity
QVQLVESGGGLVQAGGSLRLSCAASGFIFNHYAMGWYRQAPGKEREFVAAISWSGGSTYYADSVKGRFTISRDNAKNTVYLQMNSLKPEDTAVYYCAASYNCLWHGDYDYWGQGTQVTVSS	low polyreactivity
QVHLVESGGRLVQAGVSLRLSCAASGRIFSNYAMGWYIQAPGKERELVAAISRGGGRTFYADSVKGRFTISRDNAKNTVYLQMNSLKPEDTAVYYCATRSYYVKGDYWGQGTQVTVSS	high polyreactivity
QVQLVESGGGLVQAGGSLRLSCAASGRTFRAYSMGWYRQAPGKERELVAASSRSGGRTYYADSVKGRFTISRDNAKITVFFQINSLKPEDTAVYYCAAETKYNTHDYYYWGQATQVTVSS	high polyreactivity
QVQLVESGGGLVQAGGSLRLSCAASGSTFSWYVMGWYRQAPGKERELVAAITRGGGSTYYADSVKGRFTISRDNAKNTVYLQMNSLKPEDAAVYYCNADPGFRSGDYGYSSFDYWGQGTQVTVSS	low polyreactivity
QVQLVESGGGLVQAGGSLRLSCAASGRILRYYAMGGYRQAPGKERELVAAITSGGSTTYYADSVKGRFTISRDNAKNTVYLQMNSLKPEDTAVYYCAADRARSSAKYDYWGQGTQVTVSS	low polyreactivity
QVQLVESGGGLVQAGGSLRLSCAAYGGIFPAYAMGWYRQAPGKERELVAAISSSGRTYYADSVKGRFTISRDNAKNTVYLQMNSVKPEDTAVYYCAAYGGYRGWVFGSYGSWGQGTQVTVSS	high polyreactivity
